Data published in article PMC10746245.

Molecular target: MoKat2 tagged with FLAG or GFP (MoKat2-FLAG and MoKat2-GFP) (Magnaporthe oryzae)
Assay: native gel or EMSA

MoKat2 tagged with FLAG or GFP (MoKat2-FLAG and MoKat2-GFP) (enzyme)
stoichiometry N: 2
